Measurements: US20190321456A1 (NATIONAL HEALTH RESEARCH INSTITUTES, published 2019)

T1: recombinant ovalbumin (OVA) (Gallus gallus (Chicken), UniProt P01012 1-386)
T1 sequence: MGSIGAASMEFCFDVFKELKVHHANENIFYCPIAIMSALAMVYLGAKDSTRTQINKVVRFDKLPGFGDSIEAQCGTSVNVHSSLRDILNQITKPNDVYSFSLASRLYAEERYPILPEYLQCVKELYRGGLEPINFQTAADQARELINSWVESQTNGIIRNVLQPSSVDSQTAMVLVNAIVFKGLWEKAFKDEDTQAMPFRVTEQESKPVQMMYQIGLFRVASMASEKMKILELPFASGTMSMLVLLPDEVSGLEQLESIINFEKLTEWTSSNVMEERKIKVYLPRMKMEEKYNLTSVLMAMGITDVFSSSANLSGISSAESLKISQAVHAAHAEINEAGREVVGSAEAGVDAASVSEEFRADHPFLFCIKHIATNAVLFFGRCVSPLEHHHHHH

B1: OVA-FLIPr-like fusion protein (other)
chain: MGSIGAASMEFCFDVFKELKVHHANENIFYCPIAIMSALAMVYLGAKDSTRTQINKVVRFDKLPGFGDSIEAQCGTSVNVHSSLRDILNQITKPNDVYSFSLASRLYAEERYPILPEYLQCVKELYRGGLEPINFQTAADQARELINSWVESQTNGIIRNVLQPSSVDSQTAMVLVNAIVFKGLWEKAFKDEDTQAMPFRVTEQESKPVQMMYQIGLFRVASMASEKMKILELPFASGTMSMLVLLPDEVSGLEQLESIINFEKLTEWTSSNVMEERKIKVYLPRMKMEEKYNLTSVLMAMGITDVFSSSANLSGISSAESLKISQAVHAAHAEINEAGREVVGSAEAGVDAASVSEEFRADHPFLFCIKHIATNAVLFFGRCVSPGGGGSGGGGSGGGGSFFSYEWKGLEIAKNLADQAKKDDERADKLIKEADEKNEHYKGKTVEDLYVIAKKMGKGNTIAVVKIKDGGKNGYYTFDITRPLEEHRKNIPVVKNGEIDSITWYLEHHHHHH
notes: Expressed in E. coli from pET-22b(+) and purified by IMAC; also called recombinant OVA-FLIPr-like fusion protein
B2: OVA-FLIPr fusion protein (other)
chain: MGSIGAASMEFCFDVFKELKVHHANENIFYCPIAIMSALAMVYLGAKDSTRTQINKVVRFDKLPGFGDSIEAQCGTSVNVHSSLRDILNQITKPNDVYSFSLASRLYAEERYPILPEYLQCVKELYRGGLEPINFQTAADQARELINSWVESQTNGIIRNVLQPSSVDSQTAMVLVNAIVFKGLWEKAFKDEDTQAMPFRVTEQESKPVQMMYQIGLFRVASMASEKMKILELPFASGTMSMLVLLPDEVSGLEQLESIINFEKLTEWTSSNVMEERKIKVYLPRMKMEEKYNLTSVLMAMGITDVFSSSANLSGISSAESLKISQAVHAAHAEINEAGREVVGSAEAGVDAASVSEEFRADHPFLFCIKHIATNAVLFFGRCVSPGGGGSGGGGSGGGGSFFSYEWKGLEIAKNLADQAKKDDERIDKLMKESDKNLTPYKAETVNDLYLIVKKLSQGDVKKAVVRIKDGGPRDYYTFDLTRPLEENRKNIKVVKNGEIDSIYWDLEHHHHHH
notes: Expressed in E. coli from pET-22b(+) and purified by IMAC; also called recombinant OVA-FLIPr fusion protein
B3: biotin-conjugated recombinant FcγRI (receptor)
chain: QVDTTKAVITLQPPWVSVFQEETVTLHCEVLHLPGSSSTQWFLNGTATQTSTPSYRITSASVNDSGEYRCQRGLSGRSDPIQLEIHRGWLLLQVSSRVFTEGEPLALRCHAWKDKLVYNVLYYRNGKAFKFFHWNSNLTILKTNISHNGTYHCSGMGKHRYTSAGISVTVKELFPAPVLNASVTSPLLEGNLVTLSCETKLLLQRPGLQLYFSFYMGSKTLRGRNTSSEYQILTARREDSGLYWCEAATEDGNVLKRSPELELQVLGLQLPTP
modifications: biotin-conjugated
B4: biotin-conjugated recombinant FcγRIIa-H131 (receptor)
chain: AAPPKAVLKLEPPWINVLQEDSVTLTCQGARSPESDSIQWFHNGNLIPTHTQPSYRFKANNNDSGEYTCQTGQTSLSDPVHLTVLSEWLVLQTPHLEFQEGETIMLRCHSWKDKPLVKVTFFQNGKSQKFSHLDPTFSIPQANHSHSGDYHCTGNIGYTLFSSKPVTITVQVPSMGSSSPMGI
modifications: biotin-conjugated
notes: The H131 allotype name implies the human receptor
B5: biotin-conjugated recombinant FcγRIIb (receptor)
chain: APPKAVLKLEPQWINVLQEDSVTLTCRGTHSPESDSIQWFHNGNLIPTHTQPSYRFKANNNDSGEYTCQTGQTSLSDPVHLTVLSEWLVLQTPHLEFQEGETIVLRCHSWKDKPLVKVTFFQNGKSKKFSRSDPNFSIPQANHSHSGDYHCTGNIGYTLYSSKPVTITVQAP
modifications: biotin-conjugated

Experiments:
[1] = biological target: B4; experiment: ELISA, coated fusion protein, biotin-conjugated FcγR in solution
[2] = biological target: T2, biotin-conjugated recombinant FcγRIIIa-F158 (UniProt P08637 17-208, biotin-conjugated); experiment: as above
T2 construct: The F158 allotype name implies the human receptor

[3] = biological target: T3, biotin-conjugated recombinant FcγRIIIa-V158 (UniProt P08637 17-208); experiment: as above
T3 construct: The V158 allotype name implies the human receptor

[4] = biological target: T1, recombinant ovalbumin (OVA); experiment: ELISA, plate coated with recombinant protein at 1 µg/mL, serial dilution of biotin-conjugated FcγR, streptavidin-HRP

T2 sequence (P08637 17-208 limits assumed): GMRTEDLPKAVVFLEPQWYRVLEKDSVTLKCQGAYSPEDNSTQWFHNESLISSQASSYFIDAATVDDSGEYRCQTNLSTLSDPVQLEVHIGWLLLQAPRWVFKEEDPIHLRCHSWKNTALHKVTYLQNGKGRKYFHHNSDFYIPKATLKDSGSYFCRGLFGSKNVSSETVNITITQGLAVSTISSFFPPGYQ
T3 sequence (P08637 17-208 F176V limits assumed): as the sequence (P08637 17-208 limits assumed) above, with F160V counted along it

**Q.** Does B1 bind [1]?
**A.** Result: binds

**Q.** Does B1 bind [2]?
**A.** Result: binds

**Q.** Does B1 bind [3]?
**A.** Result: binds

**Q.** Does B2 bind [1]?
**A.** Result: binds

**Q.** Does B2 bind [2]?
**A.** Result: binds

**Q.** Does B2 bind [3]?
**A.** Result: binds

**Q.** Does B3 bind [4]?
**A.** Result: no binding

**Q.** Does B4 bind [4]?
**A.** Result: no binding

**Q.** Does B5 bind [4]?
**A.** Result: no binding
